These results are taken from PMC4329186.

In this data set the target is human alpha-thrombin (human, UniProt P00734;P00734 328-363;364-622). Description: ctITP-NECEEM capillary electrophoresis; no metal ions; 400 nM thrombin; Tris-HCl sample buffer, no added metal ions, 30 min incubation; Tris and glycine reagents for CE; pH and temperature not given in the material.

B1: 29mer thrombin aptamer with Ion Torrent primer handles and spacer (97 nt) (structured_DNA)
DNA: CCTCTCTATGGGCAGTCGGTGATAGTCCGTGGTAGGGCAGGTTGGGGTGACTTAAGGAGTTCAATATCTGAGTCGGAGACACGCAGGGATGAGATGG
As for B1, the binding result is recorded as “binds”.
